Assay: soluble on expression in E. coli; label from the status in PepcDB or PDB records
With “MVTSKKCPTCHGKRLSTSVLKCKINNLDIADFTNLSIDDALKFIKKIDSPKANVIIEPLQQQLESLSYIGLNYLTLSRESTSLSGGESQRIKLIRHLNSALSDLVYIIDEPSIGLHPEDIQRINEIILSLKNKGNTVLVVEHDPDVIKIADYIIDLGPLAGKYGGDITFTGSYHELLNSTTHTGDALRRMHQLKSPNLSASNFINLKNVSRNNIKNMTVTLPEQAMTVVTGVAGSGKSSLIHTGLEALADTIFIDQKPAHASSRSNLLTYLNIFDDVRSYFSEVTGLKKSLFSYNSAGACPECHGKGIIKTELAFMPDFTQTCDVCHGKRYKPEVLDVKVEGYNIADILALTVDEAITFFNKNKDIAQPLQALKSTGLNYMTLGQTLDTLSGGEVQRVKLSKYLTKTVHQHIFVFDEPTTGLHEDDIPILIDCFKRLIDEHNTVVIIEHNLTMMTYADWIIDIGPFAGEKGGQLLYQGEPQGLLQINASLTAKHLKRYTERLEHHHHHH” the “soluble on expression in E. coli” value was “soluble”.
With “MVVGGFGVGKTTMVRSVSEIRPLNTEETMTQAGEAVDDISEVRGKSATTVAFDFGRISLDARNVLYLFGAPGQERFWFLWDRLFSGTLGAVVLVDTRRIDDSWYAIDRLEHHGTPFIVACNDFGGPEHSPEAVREALDLDPRVPLVSCDARSRQSSKQVLITLVEHLQAHYAGPTARPRQEFALEHHHHHH” the “soluble on expression in E. coli” value was “not soluble”.
With “MVVKIKGKVFVFGDNVNTDEIIPARYLNTSDPQELAKYCMEDARPGFGRRDDIKGSIIVAGENFGCGSSREHAPVAIKAAGISCVIAKSFARIFFRNAINIGLPIVELKEADEFEEGDIAEVDLENGVVRNLTKGKEYRIRPYPEFLMKIMEAGGWLEYCLKEVGE” the “soluble on expression in E. coli” value was “soluble”.
For “MVVSAMAGLEENGSEPTAPRADPQGDPFLRTRFALPTRPGTFLRRERLVRHLDHALRTPLTMVNGAAGAGKTLLVADWAAGQDRSVAWLTTDAADQGCGTFWAYLLQALRACDVPLPAEVGFPADANRVDHTLLARLAADLSVRDRPVVVVLDEYDRVTDPEIADQLEFV”, the “soluble on expression in E. coli” value was “not soluble”.
In the case of “MVVSIGVFDGVHIGHQKVLRTMKEIAFFRKDDSLIYTISYPPEYFLPDFPGLLMTVESRVEMLSRYARTVVLDFFRIKDLTPEGFVERYLSGVSAVVVGRDFRFGKNASGNASFLRKKGVEVYEIEDVVVQGKRVSSSLIRNLVQEGRVEEIPAYLGRYFEIEGIVHKDREFGRKLGFPTANIDRGNEKLVDLKRGVYLVRVHLPDGKKKFGVMNVGFRPTVGDARNVKYEVYILDFEGDLYGQRLKLEVLKFMRDEKKFDSIEELKAAIDQDVKSARNMIDDIINSKFEKEG”, the “soluble on expression in E. coli” value is reported as “soluble”.
With “MVVVCASHIQPAIICRFTWLRFLMEIILIRHGKPTSANNPVLNAVDFTKWVRRYNFSDVSTNSRPDSILDEYKSHYIVSSDLERAIHSASIYTGQSPELTSKLYREMEIPRYKFPLRFKAMTWVYINRAFWMLGLKGSFESYRQAKIRAELASDHLVELAREQDKVILFGHGYLNLHIRRSLIKKGWKLNSKSNGFWGISSLEGLEHHHHHH” the “soluble on expression in E. coli” value was “not soluble”.
In the case of “MVYSWQHCPNTRSNTEAMMAHDWDEYAANWEKDPATHAFAQSVFEHLTKILSLQGKHILDFGCGTGLLSQRMSPFARDIVALDSSEAMIEELDRKELRNVEPVVDCLTRGLVAQHPAFRKQFDLVVASSVCAFLPNLQDVTDIIFTLVDEGGYFVHFDWLADGKSEIGLSTTEIESVLRNAGFSAVETRVAFDVTTAQGTQPVVVGIARK”, the “soluble on expression in E. coli” value is reported as “not soluble”.
In the case of “MVYVIGMGARGREGLSLKALRRLEEAEVLIGGRRHLAHFPDHPGEKVPVQGPLEALLDLAEARLKEGKKVAFLASGDPLFYGIGKRVLERFPEAEVHPAPTAFQEAFARLKLPWDQARFFSLHGRPLGGVLLELSLSPLSVVYTDPEHTPAGIARALLEMGVDARAHVAERLGEEDERVRSFAGLKEVAEERFLDPNVLILEAKGPLPPRLGFFPDEAFEQRMPKKGLITKREVRLLALGLLGLPPDGVLWDIGAGTGSVGIEAARLAPWGEVYAVEKNPESWPHIVENARRFGAFNLHLVKGEAPEALKGLPAPHAVFVGGSGGELEEILRVSLKALRPGGRLVVAAITLENLLAAYGFLKGTGLPLEGFQVQASRVVPLARYHRLEAQNPITLLAVTKEGA”, the “soluble on expression in E. coli” value is reported as “soluble”.
For “MWNFTLISKVKISREVTMIASKFGIGQQVRHSLLGYLGVVVDIDPVYSLSEPSPDELAVNDELRAAPWYHVVMEDDNGLPVHTYLAEAQLSSELQDEHPEQPSMDELAQTIRKQLQAPRLRNLEHHHHHH”, the “soluble on expression in E. coli” value was “not soluble”.
In the case of “MWSTIFFVFSTFVLIVDSGSVGLCRTECIEQNSRKIVRVHLKDQLVMAGLCNNNTQQTGSIVTPYVCHRNIGLWTLDELDEEGTVKFETLCPTPEQYPLELRATCPRVDAQHDDTPNEMDIDDYPNSGDTPLSVV”, the “soluble on expression in E. coli” value is reported as “not soluble”.
In the case of “MYDTEIPYEGKISIYTYFCKECGYRKTEVYSDEKRDPKKITIRIENPDDLRIIVYRSRRADVYIPEMEASIDSAEYSNGEITTIEGIIYRIGEKLDLLAADDQNNKKIASLRKRIDGIINGKFESFTLIIMDESGKSVVHSDKAMVESMD”, the “soluble on expression in E. coli” value is reported as “soluble”.
For “MYEEFRDVITFQSYVEQSNGEGGKTYKWVDEFTAAAHVQPISQEEYYKAQQLQTPIGYNIYTPYDDRIDKKMRVIYRGKIVTFIGDPVDLSGLQEITRIKGKEDGAYVG”, the “soluble on expression in E. coli” value was “soluble”.
With “MYFMKSKNRFLLISLLSFSTSVFADVNLYGPGGPHVPLIKVAESFEKSQSKRVNITFGPQATWNDKAKKNADILFGASEHSALAIAEGHSERFSKFNIHPVFMREAIILVKKGNPKNIKGMADLLKPGIGIVVNDGAGVSNTSGTAVWEDSVGRMKNVEKLQAFRSNIHVFAPNSGSARKAFVDGEDIDAWITWVDWAIANPTIGDMVRMEDEYRIYRDFNVVLAKNPSSEAIDFFDYLTKSKDAEAIFQHYGWFK” the “soluble on expression in E. coli” value was “not soluble”.
In the case of “MYFRLESQFSINGSMIVLINGAEPSLESHVAFYETGTFTVEQGEMRMIELKYQSTMENIHAFLDVVTGAIDIHLSPCKSQETDIFYSNLAAGSHRIDIDLKTMMDNVSVLLKKNVSKLHKAKR”, the “soluble on expression in E. coli” value is reported as “not soluble”.
With “MYHLKKILEVKQVNKTYSMDGNANYHVLKNIDLEVYEGEFVSVMGPSGSGKSTLLYNISGMDQMSSGSVKIDSKELSCMKEEELAKLRLTEIGFIFQQSNLLRNLNLFDNIILSAYLAKCESKKIVNKRALELMENMGISDIASHYITEASGGQLQRVSICRALINNPNIIFADEPTGALNLKSTEEVMQILLNINRDGTTIMLVTHDVKVAAKTERILFMADGEIVSEIQLGKLRNDDLKAREEKLLNWLAVLGF” the “soluble on expression in E. coli” value was “not soluble”.
For “MYHNSSQKRHWTFSSEEQLARLRADANRKFRCKAVANGKVLPNDPVFLEPHEEMTLCKYYEKRLLEFCSVFKPAMPRSVVGTACMYFKRFYLNNSVMEYHPRIIMLTCAFLACKVDEFNVSSPQFVGNLRESPLGQEKALEQILEYELLLIQQLNFHLIVHNPYRPFEGFLIDLKTRYPILENPEILRKTADDFLNRIALTDAYLLYTPSQIALTAILSSASRAGITMESYLSESLMLKENRTCLSQLLDIMKSMRNLVKKYEPPRSEEVAVLKQKLDRCHSAELALNVITKKRKGYEDDDYVSKKSKHEEEEWTDDDLVESL”, the “soluble on expression in E. coli” value was “soluble”.
For “MYKIVNNDQNKRLVIAKSKAQSLRKTFLHSCLPKMPLSQPWSHSFEICQEHNTQKRISYSRLHRSIGRLRVFLTDDNSILKSTNKFIKILIQQIAFHNLFRWYCRWNDEFQVDEHLDHFCRKDKAQEVFNVSWLVLKFNVFKLYTQKFLYTYSFITIFRLSFRFPTTFRSIF”, the “soluble on expression in E. coli” value was “not soluble”.
In the case of “MYKNNFENYMNLDIYKDIEEIRAALEHLGAKKILLQLPDGLKPEVYHYFNYLSANYNVVISSSPVYGACDIGPSSIYDKVDAIVQIGHSPMPNVKYPKPTIFVEHHYNARISNIDTSLLEGKYDRIGLLFSVQYKEVADEVRKIFENKGFTVIIGKKDGRMAYDGQVLGCNFSSVHSISYDVDAYVLVSTGQFHGIGAQLSTEREVFVLDLNDYKLHSMKDEADKFIRKRYAQIFRAKEARKICIISDTRIGQRRERLARIILRQVQQMGLEGILAVTDNISNQDLENMRCDAVVYTGCPRVPIDDQQKFTMPLLTPAEFEMGFVKNSNRYVLDEIVSVDDPADKLEHHHHHH”, the “soluble on expression in E. coli” value is reported as “not soluble”.
For “MYKQLEKLITLTNNDLNLVNRRFGQRTDITSEQLELLRILFNYDRLSQYDLTMKISREQSIVSRWIKKLVLKGYITSQQSSEDLRCKELILTDQARTLISQINNARCELIEARCQCLSEVELDNLNQLLDKLNQRRISL”, the “soluble on expression in E. coli” value was “not soluble”.
In the case of “MYKRAEYHVITDRLKDRRRFIQVVMGARQIGKSTVVKQVLKDLDAPYQFFSADNVPTVNGAWISDCWAAVRSLKEAKEWESIILVIDEIQKIANWSEVVKKEWDDDTFHDRNIKVLLLGSSRVLLEKGLSESLAGRFEEIRMSHWSYQEMKDCFGFSLNQYLFYGGYPGAASLTDDDDRFSQYIQAAIIEATINKDILMGTPIGKPALLRRTFELGAAYSGELLSLNKMLGSLQDAGNTVTLAGYINLLDESGLLCGLQKFGYDMARRKASIPKLQVYNNALKMVYSPFTFEQAMLDRKSWGRIFESGIGAYLVSQAFVHRFEVFYWRERDDEVDFVLRKKGSVVAIEVKSNAEKRTDGLDKFSHSFKPQSAFILGDGGVRAEDFLSMDIRKLF”, the “soluble on expression in E. coli” value is reported as “not soluble”.
In the case of “MYKRYVAQIIFALTILISAPSWAETEETGPKLAYFTLEPDLTTNFYTKGKKLGYVQVRIDIMVMSQQDLAIVEHHQPLIRDAVIELLGKQTEDTIKSLSGREDLRKTLVKELNETLLPETGKTVIADLLFTKYLYQ”, the “soluble on expression in E. coli” value is reported as “not soluble”.
For “MYMRAGDGRVHGIYSSTDVANLILKTTGTALMDKKKLHKLLYYMQGWTLAALGRPAFANDLQAWVDGPVSVGMRRDTHYATCFEVANRPLSNPLAPQDRDLLALMYLIAPFYAQQQTQALVDSTHAEAPWLDARGGLPPPMPIPARRSLTTHCTATFHSTPASWV”, the “soluble on expression in E. coli” value was “not soluble”.
With “MYMTGHSLGCYLAQIAAVEAYQKYPDFYNHVLRKVTTFSAPKVITSRTVWNAKNGFWDVGLESRKLAVSGKIKHYVVDNDNVVTPLIHNNRDIVTFTGNSRFKHRSRGYFESPMNDIPNFNIGKQATLDKHGYRDPKLDKVRFFKKQALPRSSSQPSAEPMENIASGKQVTQSSTAFGGDARRAVDGKVDGNYGHNSVTHTNFQSKPWWQVDLAKEETIRQINIYNRTDTAQDRLANFDVILLDSSGKEIE” the “soluble on expression in E. coli” value was “not soluble”.
With “MYNGILPVYKERGLTSHDVVFKLRKILKTKKIGHTGTLDPEVAGVLPVCIGNATRVSDYVMDMGKAYEATVSIGRSTTTEDQTGDTLETKGVHSADFNKDDIDRLLENFKGVIEQIPPMYSSVKVNGKKLYEYARNNETVERPKRKVNIKDIGRISELDFKENECHFKIRVICGKGTYIRTLATDIGVKLGFPAHMSKLTRIESGGFVLKDSLTLEQIKELHEQDSLQNKLFPLEYGLKGLPSIKIKDSHIKKRILNGQKFNKNEFDNKIKDQIVFIDDDSEKVLAIYMVHPTKESEIKPKKVFN” the “soluble on expression in E. coli” value was “soluble”.
With “MYPADFASQLNVLTLAEMKKTIHDILDFRDEDIWMLFGTLPVFPCLKDDEDQKLLSRLRNANNVTTRNDPDGRSRLNVNVFTGNVIVTDFGDETGTISNIQKDKLTDVFDKWLSSDLAKSLNCHCSEFSCLGPNVLVKNMYYPNMDFKDNERHMHKQPQIIQF” the “soluble on expression in E. coli” value was “not soluble”.
With “MYSGFTREKSDLRTEDVEITKEPFTLLIMGIEDYATDGQNGRTDSLMFATVNPKTQKISLMSIPRDSRVPIVGKNKEDKINAAHAYGGEEMAIKTVEGFLKVPVDHYVKIDFQGFKGIVDAVGGVTVDVPFDFWERSDVDYYKKIQFKQGQQELNGEEALAYVRMRKQDPNGDYGRAARQRQLLAAVAQKLNSTSTVFKIKDLTSVVGKYIKTDIPISDGLALYKKLSGFDPSTIQTLKLEGEDKKIGGIYYFLPDPNGVEAVRNEIKKELGEKVTTQENSTTKTESTPSSNSNSNEKAKKETNRNQNKTPTDPPPSTNAHAEWIMRNQQLEHHHHHH” the “soluble on expression in E. coli” value was “soluble”.
